As a reminder, the Kd is the concentration at which binding is half-saturated.

Assay [1] deals with Fz27C3. In words: yeast surface titration.
In assay [2] the target is Fz27C49. In words: yeast surface titration.
For assay [3], the target named is Fzd5CRD. In words: SPR. (In SPR one partner is held on a chip, and binding of the other changes the refractive index at the surface.)
The target of assay [4] is Fzd1CRD. In words: SPR.
For assay [5], the target named is Fzd7CRD. In words: SPR.
The target of assay [6] is T1, Fz8-CRD (UniProt Q9H461 32-151, fluorescence-conjugated).
T1 chain: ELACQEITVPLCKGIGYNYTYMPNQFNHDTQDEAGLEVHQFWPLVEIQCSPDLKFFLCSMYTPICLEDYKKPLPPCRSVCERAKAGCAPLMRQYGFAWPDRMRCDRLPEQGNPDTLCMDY
Nature of the assay: SPR.

B1: Fzd8-CRD (receptor)
chain: ELACQEITVPLCKGIGYNYTYMPNQFNHDTQDEAGLEVHQFWPLVEIQCSPDLKFFLCSMYTPICLEDYKKPLPPCRSVCERAKAGCAPLMRQYGFAWPDRMRCDRLPEQGNPDTLCMDY
modifications: fluorescence-conjugated
B1: the figures for the Kd in assay [1] and in assay [2] were ~0.122 nM and ~0.092 nM, respectively.

B2: scFv(Onco)-DKK1c (other)
chain: MLLVNQSHQGFNKEHTSKMVSAIVLYVLLAAAAHSAFAADPIELTQPPSVSVAPGQTARISCSGDNIGSFYVHWYQQKPGQAPVLVIYDKSNRPSGIPERFSGSNSGNTATLTISGTQAEDEADYYCQSYANTLSLVFGGGTKLTVLGTTAASGSSGGSSSGAEVQLVESGGGLVQPGGSLRLSCAASGFTFSHYTLSWVRQAPGKGLEWVSVISGDGSYTYYADSVKGRFTISSDNSKNTLYLQMNSLRAEDTAVYYCARNFIKYVFANWGQGTLVTVSGSGSGKMYHTKGQEGSVCLRSSDCASGLCCARHFWSKICKPVLKEGQVCTKHRRKGSHGLEIFQRCYCGEGLSCRIQKDHHQASNSSRLHTCQRHHHHHHH
With B2, the Kd amounted to 0.75 nM in assay [3], 1.1 nM in assay [4], 0.82 nM in assay [5] and 1.4 nM in assay [6].

For the origin of these results see patent publication US20210403578A1 (published 2021).
